Measured values as given in the DeepSol protein solubility set.

Test: soluble on expression in E. coli; label from the status in PepcDB or PDB records

Row | Sequence | soluble on expression in E. coli
1 | MEGRLTVVPTPIGNLEDITLRALKVLREADLILAEDTRTSSVLLHHYDIHCPLQSHHKFNEHRTAKSLAERISGGERIALISDAGTPGISDPGFLLVRACAELGVVVECLPGPTALIPALVASGLPADRFVFEGFLPVKKGRQTRMKELAEELRTMIFYESPHRVLRTLTQFVETFGLDRPAAACRELSKLHEEVIRGTLAELLAHFENHPPRGEFVLIVGGAAPKGRKEEKQ | not soluble
2 | MSELRVISLDEVSKHNWEDADQSCWIVISGKVYDVTKFLNEHPGGEEVITQLAGKDATVGFLDVGHSKDAIEMANEYLIGQLPESDVPKVETAAAKPSKNEKSSSLLNDFTEIMTSPTWTNFLIPTTMGLVIYAVYKCMFN | not soluble
3 | MGSDKIHHHHHHMTMVLDQVVPFGRSMDEYIKIFNLTDADLNKKIIGIGDGPASFNAEMTRQGKSVISVDPLYQFSGDEILQRFNEVLDNIINQVKATSNNWVWSYHKSPDDLRHNRVKVIREFLSDYENGKKSNRYIVDEFPKLKFKTQEFEIALCSHLLFLYSDHLDYDFHLNSIGEMLRIAKEIRIFPLITLMWKHSQHLDEIVKHYTSIGYKIDIENVEYELQPGGNKMLKITRDFYKNHNL | not soluble
4 | MSLGTMSTEATLLERCQSQCELCAASTPLSPFVVAPHALVTVDHAVMLCDTCKGQIENPETVDMNHWRCLNDSMWSQVQPVQVLAWRQLKRISETEGWARDLLDMMYLDEETAKWAEIGMDDDAEKPRDVNGVELKKGDDVTVIKDLPVKGSSMVIKQGTAVRGIALTEDPKHIQGKVNGQTMYIIAEYCRKKEGGSHHHHHH | soluble
5 | SEVDINGDSRSTLTTLPLPVAEGSSPGKAEAEKPRCSSTPCSPMRRTVSGYQILHMDSNYLVGFTTGEELLKLAQKCTGGEDSKGEAMPALRAKQLDTGLARSSRLYKTRSRYYQPYEIPAVNGRRRRRMPSSGDKCTKPLPYEPYKALHGPLPLCLLKGKRAHSKSLDYLNLDKMNIKEPADTEVLQYQLQHLTLRGDRVFARNNT | not soluble
6 | MIYPLPAILVSCGKDESEYNIITVAWTGTICTNPPMCYISVRPERHSYDIIKKNMEFVINLTTKDMAFPTDWCGVRSGRNYRKFEEMKLTPGRCTVVSAPLIEESPLCIECRVKEIVSLGSHDMFIADVVNVRADDRNLNPETGKFELAEANPLVYVHGGYYDLGEKIGKFGWSVEKKK | not soluble
7 | GPGSMRTSADIACLLAQYIKGQPEERLVTAAAYPDIFTPDVVEELNGAYALLLDAQRQAREACCAVDDVTREHGLPTALRITPKEQNELDVTEEMMIKRFAEEVAVYLSEGGAPNISSDAEPTSVLNSHCVDLRWHQHSTLVLHVLSYLPLEFTLSVAENVCKGWREWLFIPEFSGMFWHECTMREYPECVRMLLLSGGGDARQCDWRTFAMLCCSVDEEDISGEGTRSPDLVHS | not soluble
8 | MGHHHHHHSHMEFIVDSVDKTMHIGRQLGSLVNKGDILCLTGDLGTGKTHISKGIAEGLGIDEHITSPTFNIVNEYHSGRLTLYHFDVYRVNDPDEIEAIGFDEYIFGDGVSLIEWANYIEELIPEEYIHIKIEKLPDMGENFRKITINGYGDRYNYIKEIKE | not soluble
9 | MHHHHHHMVGFGELKEEWRGEVVHLSWSPRAFLLKNFLSDEECDYIVEKARPKMVKSSVVDNESGKSVDSEIRTSTGTWFAKGEDSVISKIEKRVAQVTMIPLENHEGLQVLHYHDGQKYEPHYDYFHDPVNAGPEHGGQRVVTMLMYLTTVEEGGETVLPNAEQKVTGDGWSECAKRGLAVKPIKGDALMFYSLKPDGSNDPASLHGSCPTLKGDKWSATKWIHVAPIGGRH | soluble
10 | MSQIMYNYPAMLGHAGDMAGYAGTLQSLGAEIAVEQAALQSAWQGDTGITYQAWQAQWNQAMEDLVRAYHAMSSTHEANTMAMMARDTAEAAKWGG | not soluble
11 | MAHHHHHHMSEKKEYINPAGLRLDGRRPQESRRMTLEFGKVLGCDGCCTVMSGLATVCASVYGPREVTNRLESKYNECIITCEVAIAAFAGEKRRAPQRRSKLSEEMSAAVLEVARSVVLLSQYPNSQIHICVEVLRQDGSDKAACINAACLALVDACVAMRDIVYAQTVGLIHAVDVVDLTTEEMRSQCPTICIAVKGHDPSSIVWMESNCRVTSEVVSRLVTVAQKSSEGVFAAALRGPLEEHAAAILKLQGNLGNGD | not soluble
